Measured values as given in patent US9315544B2, “Method of treating eosinophilia by administering an immunomodulating peptide” (National Tsing Hua University, priority 2012, dated 2016).

Assays:
Assay type in all cases: cell-based
human CCL11 = experiment: CCL11 protein release from Beas-2B cells by ELISA; conditions: 37° C., 24 h
Procedure: FIG. 2 illustrates CCL11 expression in CMP and ECP co-treated Beas-2B cells. Beas-2B cells were starved with serum free medium for 24 h, followed by stimulation with ECP (column 2). Cells were stimulated with PBS as negative control (column 1) and ECP in the absence of CMP (column 2) or presence of 1 μM (column 3), 2.5 μM (column 4), 5 μM (column 5), 10 μM (column 6) CMP at 37° C. for 24 h. CCL11 protein level was determined by ELISA kit employing CCL11 antibody. The data represented mean±SD (standard deviation) of at least three independent experiments. ***, p<0.001; **, p<0.01
FIG. 3 illustrates CCL11 expression in CMP and IL-4 co-treated Beas-2B cells. Beas-2B cells were starved with serum free medium for 24 h, followed by stimulation with PBS (column 1) or 10 ng/mL IL-4 (column 2-7). Cells were stimulated with 10 ng/mL IL-4 in the absence […] or presence of 1 μM (column 3), 2.5 μM (column 4), 5 μM (column 5) and 10 μM (column 6) CMP at 37° C. for 24 h. CCL11 protein level was determined by ELISA kit employing CCL11 antibody. The data represented mean±SD (standard deviation) of at least three independent experiments. ***, p<0.001 (Stimulation with IL-4 compared with PBS treated Beas-2B cells). *, p<0.05 (Stimulation with indicated concentrations of CMP compared with IL-4 treated Beas-2B cells).
CCL11 ELISA kit (R&D) is an in vitro enzyme-linked immunosorbent assay for quantitative determination of human CCL11 concentration in cell culture supernatants. This assay employed an antibody specific for human CCL11 coated on a 96-well plate. The wells were incubated with 50 μL standard or sample for 2.5 hours at room temperature. After washing with 1× wash solution five times, 200 μL of CCL11 conjugate were added into each wells for 1 h. After washing, 100 μL TMB One-Step Substrate Reagent were added into each wells at room temperature for 30 minutes. 50 μL of Stop Solution were added into each wells and read at 450 nm by spectrophotometer immediately. Limit of detection in the assay was 5 pg/mL.
To investigate whether CMP influenced ECP-mediated CCL11 expression, Beas-2B cells were separately stimulated with 5 μM ECP in the absence of CMP and in the presence of 1 μM, 2.5 μM, 5 μM and 10 μM CMP at 37° C. for 24 h.
To further investigate whether CMP influenced CCL11 production from other stimulation in Beas-2B cells, serum-deprived Beas-2B cells were stimulated with 10 ng/mL IL-4, a dominant cytokine regulating CCL11, alone or in the presence of CMP at concentrations 1, 2.5, 5 and 10 μM at 37° C. for 24 h.

CCL11 = experiment: Cytokine mRNA expression analysis by quantitative real-time PCR (CCL11); conditions: 5 μM ECP, Beas-2B cells, relative to mock-treated
Procedure: (§1) FIG. 1A-1B illustrates immunomodulatory effect of CMP on transcription of cytokine. Beas-2B cells were starved with serum free medium for 24 h, followed by stimulation with refold 5 μM ECP or 5 μM CMP or co-treatment with 5 μM ECP and 5 μM CMP at 37° C. for (A) 6 h and (B) 12 h, respectively. The mRNA quantities of CCL11, CCL24 and CCL26 were determined by real-time PCR. Beas-2B cells without protein treatment were used as control. […] The data represented at least three independent experiments and the error bar was shown as standard deviation (SD).
For inflammatory cytokine expression analysis, Beas-2B cells were stimulated with three different conditions: 1) 5 μM ECP, 2) 5 μM CMP and 3) co-incubated with 5 μM ECP and 5 μM CMP at 37° C. for 6 and 12 h. After incubation, total RNAs were extracted with RNA TRIzol reagent (Invitrogen, Inc) and reverse transcribed with MoMLV-reverse transcriptase (Promega, Madison, Wis.). SYBR Green-based quantitative real-time PCR will be used to quantify the gene of interest, relative expression ratios of genes of interest were normalized to glyceraldehyde-3-phosphate dehydrogenase (GAPDH) transcripts. Changes in cytokine expression were measured by quantitative real-time PCR (qRT-PCR) employing the StepOne™ amplification and detection system (Life Technologies Corporation). Data were analyzed by application of the StepOne™ quantification program software (version 2.22, Life Technologies Corporation) and expressed as means±S.D. Significance analysis was carried out by a two-sample unequal variance t-test with two-tailed distribution (post test). Significance was set as P<0.05.
ECP, the best known marker protein of asthma, is involved in triggering cytokine expression in bronchial epithelial cells. Real-time PCR analysis was carried out to quantify expression levels of indicated cytokines upon treatment with recombinant ECP in the presence and absence of CMP Bronchial epithelial Beas-2B cells were separately cultured in serum-free medium in the presence of 5 μM ECP, 5 μM CMP and both 5 μM ECP and 5 μM CMP for 6 and 12 h to monitor cytokine and chemokine gene modulation using real-time quantitative PCR. Untreated Beas-2B cells incubated at the same condition for 6 h and 12 h were used as negative controls. Here variation of gene expression levels of chemokines including CCL11, CCL24 and CCL26 was analyzed.

CCL26 = experiment: Cytokine mRNA expression analysis by quantitative real-time PCR (CCL26); conditions: 5 μM ECP, Beas-2B cells, 6 h, relative to mock-treated
Procedure: as §1
For inflammatory cytokine expression analysis, Beas-2B cells were stimulated with three different conditions: 1) 5 μM ECP, 2) 5 μM CMP and 3) co-incubated with 5 μM ECP and 5 μM CMP at 37° C. for 6 and 12 h. […] SYBR Green-based quantitative real-time PCR will be used to quantify the gene of interest, relative expression ratios of genes of interest were normalized to glyceraldehyde-3-phosphate dehydrogenase (GAPDH) transcripts. Changes in cytokine expression were measured by quantitative real-time PCR (qRT-PCR) employing the StepOne™ amplification and detection system (Life Technologies Corporation). […]
ECP, the best known marker protein of asthma, is involved in triggering cytokine expression in bronchial epithelial cells. […] Here variation of gene expression levels of chemokines including CCL11, CCL24 and CCL26 was analyzed.

Row | Molecule | CCL11 release (human CCL11; 10 ng/mL IL-4 alone, serum-deprived Beas-2B cells) [pg/mL] | CCL11 gene expression level increase (CCL11; 6 h) [fold] | CCL11 gene expression level increase (CCL11; 12 h) [fold] | CCL26 gene expression level increase (CCL26) [fold] | CCL11 release (human CCL11; 5 μM ECP alone, Beas-2B cells) [pg/mL]
1 | IL-4: a dominant cytokine regulating CCL11, used as stimulus (protein, UniProt P05112 25-153, looked up) Interleukin-4: HKCDITLQEIIKTLNSLTEQKTLCTELTVTDIFAASKNTTEKETFCRAATVLRQFYSHHEKDTRCLGATAQQFHRHKQLIRFLKRLDRNLWGLAGLNSCPVKEANQSTLENFLERLKTIMREKYSKCSS | 73.2 |  |  |  | 
2 | ECP: eosinophil cationic protein, recombinant; marker protein of asthma used as stimulus (protein, UniProt P12724 28-160, looked up) Eosinophil cationic protein: RPPQFTRAQWFAIQHISLNPPRCTIAMRAINNYRWRCKNQNTFLRTTFANVVNVCGNQSIRCPHNRTLNNCHRSRFRVPLLHCDLINPGAQNISNCTYADRPGRRFYVVACDNRDPRDSPRYPVVPVHLDTTI |  | 9 | 2.8 | 2 | 17.8
